Here are results for 1 protein from paper PMC5884693 (Cell, 2018).

This data set deals with the molecule itself. Put plainly: negative stain EM.

B1: Drosophila Arc homologue dArc1 (natural protein, UniProt Q7K1U0 1-254, looked up)
chain: MAQLTQMTNEQLRELIEAVRAAAVGAAGSAAAAGGADASRGKGNFSACTHSFGGTRDHDVVEEFIGNIETYKDVEGISDENALKGISLLFYGMASTWWQGVRKEATTWKEAIALIREHFSPTKPAYQIYMEFFQNKQDDHDPIDTFVIQKRALLAQLPSGRHDEETELDLLFGLLNIKYRKHISRHSVHTFKDLLEQGRIIEHNNQEDEEQLATAKNTRGSKRTTRCTYCSFRGHTFDNCRKRQKDRQEEQHEE
In the case of B1, the binding result is reported as “binds”.
